Measured values taken from patent publication US20090075925A1, “Methods and Compositions Related to APOBEC-1 Expression” (priority 2006, published 2009).

Molecular target: rat APOBEC-1 (endogenous, rat liver nuclear extract and McArdle cells) (rat)
Test: cell-based or functional assay

apoB mRNA editing in stable McArdle cell lines: 67%
Substance: rat ACF64 S154D (from UniProt Q923K9 1-586)
